# From the nanobody polyreactivity screen of Harvey et al. (2022)
# Assay: yeast display, Sf9 membrane polyspecificity reagent, FACS + sequencing; frameworks hold sequencing errors
# Method in brief: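 Nanobodies from a synthetic yeast display library (Saccharomyces cerevisiae BJ5465), induced 36–48 hours with galactose, were stained 1 hour at 4 °C with 10% biotinylated, detergent-solubilized Sf9 membrane reagent, enriched on streptavidin microbeads, then FACS-sorted. Anti-HA (expression) and streptavidin (reagent binding) fluorescence set low and high (top ~1%) gates. Polyreactivity labels come from the gate of origin. Genes were colony-PCR amplified, MiSeq 2 × 250 sequenced and filtered by CDR length.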
row,Sequence,polyreactivity (PSR sort gate)
1,QVQLVESGGGLVQAGGSLRLSCAASGRTFTVYAMGWNRQAPGKEREFVATSSWSGGRTYYADSVKGRFTISRDNAKYTVYLQMNSLKPEDTAVYYCAAQEYTTRFYFNRDYWGQGTQVTVSS,low polyreactivity
2,QVQLVESGGGLVQAGGSLRLSCAASGRTFTWYAMGWYRQAPGKERELVAVISRGGSTNYADSVKGRFTISRDNAKNTVYLQMKSLKPEDTAVYYCAARGLYRARLKLDYWGQGTQVTVSS,high polyreactivity
3,QVQLVESGGGLVQAGGSLRLSCAASGRTFTYNTMGWYRQAPGKERELVAAISSSGGSTYYADSVKGRFTISRDNAKNSVYLQMNSLKPEDTAVYYCAKRYFSSSRYYYWGQGTQVTVSS,high polyreactivity
4,QVQLVESGGGLVQAGGSLRLSCAASGRTFTYYAMGWYIHAPGKERELVAAITWSGGSTYYADSVKGRFTISRDNAKNSVYLHMNSLKPEDTAVYYCNKTYRQGWSWVSYRSYGSGEGYWGQGTQVTVSS,high polyreactivity
5,QVQLVESGGGLVQAGGSLRLSCAASGRTFTYYAMGWYRQAPGKERELVAAIRYTGGSTHYADSVKGRFTISRDNAKNTVYLQIHSLKPEDTAVYYCGARRAYTRGGTVYFGYYYWGQGTQVTVSS,high polyreactivity
6,QVQLVESGGGLVQAGGSLRLSCAASGRTFTYYTMGWYRQAPGKERELVAAITWSGGRTYYADSVKGRFTISRDNAKYTVYLQMNSLKPEDTAVYYCAKPPQGTYDYWGQGTQVTVSS,low polyreactivity
7,QVQLVESGGGLVQAGGSLRLSCAASGRTFVANVKGWYRQAPGKERELVAGISTRGGRTYYADSVKGRFTISRDNAKNTVYLQMNSLKPEDTAVYYCAVRHYRDSTPRGAYQRYDYWGQGTQVTVSS,low polyreactivity
8,QVQLVESGGGLVQAGGSLRLSCAASGRTFVCNAMGWYRQAPGKERELVAAISSSGTATYYADSVKGRFTISRDNAKNTVYLQMNSLKPEDTAVYYCAKDLLYQPTIRDYWGQGTQVTVSS,low polyreactivity
9,QVQLVESGGGLVQAGGSLRLSCAASGRTFVGNAMGWYRQAPGKERELVADITWSGDITYYADSVKGRFTISRDNAKNTVYLQMHSLKPEDTAVYYCAADYHRRRTDYDYWGQGTQVTVSS,low polyreactivity
10,QVQLVESGGGLVQAGGSLRLSCAASGRTFVGNAMGWYRQAPGKERELVATITRRGGSTYYADSVKGRFTISRDNAKNTVYLQMNSLKPEDTAVYYCAAGSQPGRKYYYWGQGTQVTVSS,high polyreactivity
11,QVQLVESGGGLVQAGGSLRLSCAASGRTFVGNAMGWYRQAPGKERELVAVITGSGARTYYADSVKGRFTISRDNAKNTVYLQMNSLKPEDTAVYYCAAAGYSGQYRSYYWGQGTQVTVSS,high polyreactivity
12,QVQLVESGGGLVQAGGSLRLSCAASGRTFVGYAMGWYRQAPGKERELVAAIRNGGGTYYADSVKGRFTISRDNAKNTVYLQMNSLKPEDTAVYYCAARLPRSLKVGYYWGQGTQVTVSS,high polyreactivity
13,QVQLVESGGGLVQAGGSLRLSCAASGRTFVGYAMGWYRQAPGKERELVAAISTSGGRTYYADSVKGRFTISRDNEKYTVYLQMNSLKPEDTAVYYCAAGFRASIGYVTEYYWGQGTQVTVTS,high polyreactivity
14,QVQLVESGGGLVQAGGSLRLSCAASGRTFVGYAMGWYRQPPGKERELVAAISGSGVRTYYADSVKGRFTISRDNAKNTGYLQMNSLKPEDTAVYYCADRRYRRWYDYWGQGTQVTVSS,high polyreactivity
15,QVQLVESGGGLVQAGGSLRLSCAASGRTFVGYVMGWYRQAPGKERELVASITYTGTSTYYADSVKGRFTISRDNAKNTVYLQMNSLKPEDTAVYYCAAQYYLYRRGYIWKYDYWGQGTQVTVSS,high polyreactivity
16,QVQLVESGGGLVQAGGSLRLSCAASGRTFVHYTMGWYRQAPGKERELVAAISGTGTSTYYADSVKGRFTISRDNAKNTVYLQMNSLKPEDTAVYDCARDPYFGFLIGYPRRDYWGQGTQVTVSS,low polyreactivity
17,QVQLVESGGGLVQAGGSLRLSCAASGRTFVHYTMGWYRQAPGKERELVATISTSGGSTSYADSVKGRFTISRDNAKNTVYVQMNSLKPEDTAVYYCAARWYFPDRVKYVYWGQGTQVTVSS,low polyreactivity
18,QVQLVESGGGLVQAGGSLRLSCAASGRTFVNYAMGWYRQAPGKERELVAAISGGGGTNYADSVKGRFTISRDNAKNTVYLHMNSLKPQDTAVYYCAADTNGYEFDYWGQGTLVTVSS,low polyreactivity
19,QVQLVESGGGLVQAGGSLRLSCAASGRTFVNYAMGWYRQAPWKERELVAAITWSSGRTYYADSVKGRFTISRDNAKNTVYLQMNSLKPEDTAVYYCAAVGRYSGYDYWGQGTQVTVSS,high polyreactivity
20,QVQLVESGGGLVQAGGSLRLSCAASGRTFVNYAMGWYSQAPGKERELVAAISWTDDDTYYADSVKGRFTISRDNAKNTVYLQMNSLKPEDTAVYYCATDYDSYDYWGQGTQVTVSS,low polyreactivity
21,QVQLVESGGGLVQAGGSLRLSCAASGRTFVNYTMGWYRQAPGKEWELVAAIRYRDGSTYYADSVKGRFTISRDYAKNTVYLQMNSLKPEDTAVYYCNTRITQVGDYIYDYWGQGTQVTVSS,low polyreactivity

row,Sequence,polyreactivity (PSR sort gate)
1,QVQLVESGGGLVQAGGSLRLSCAASGRTFVPDVMGWYRQAPGKERELVAAITSGGSTYYADSVKGRFTISRDNAKNTVYLQMNSLKPEDTAVYYCAKRTSWKYGYWGQGTQVTVSS,high polyreactivity
2,QVQLVESGGGLVQAGGSLRLSCAASGRTFVPNALGWYRQAPGKERELVAALSWSGDSTYYADSVKGRFTISRDNAKNTVYLQMNSLKPEDTAVYYCAADPFFGVSIGGLKYHFDYWGQGTQVTVSS,low polyreactivity
3,QVQLVESGGGLVQAGGSLRLSCAASGRTFVPNAMGWYRQAPGKERELVAAISDSGGSTYYADSVKGRFTISRDNAKNTVYLQMNSLKPEDTAVYYCATDVTTYVGWEHGFNYWGQGTQVTVSS,low polyreactivity
4,QVQLVESGGGLVQAGGSLRLSCAASGRTFVPYAMGWYIQAPGKEREFVAAISSRVGSTYYADSVKGRFTISRDNAKNTVYLQMKSLKPEDTAVYYCNAPFKPAGFYSAWKYDYWGQGTQVSVSS,low polyreactivity
5,QVQLVESGGGLVQAGGSLRLSCAASGRTFVPYAMGWYRQAHGKERELVAAIDKSDGSTYYADSVKGRFTISRDNAKNTVYLKMNSLKPEDSAVYFCNAEGYTYRYYTIYNYCGQGTQVTVSS,high polyreactivity
6,QVQLVESGGGLVQAGGSLRLSCAASGRTFVPYAMGWYRQAPGKEREFVAAISSRVGSTYYADSVKGRFTISRDNAKNTVYLQMNSLKQEDTAVYYCNAPFKPAGFYSAWKYDYWGQGTQVTVSS,low polyreactivity
7,QVQLVESGGGLVQAGGSLRLSCAASGRTFVPYAMGWYRQAPGKERELVAAISSGGDTNYADSVKGRFTISRDNAKNTVYLQMNSLKPEDTAVYYCAVGGAGSDDYLGQGTQVTVSS,low polyreactivity
8,QVQLVESGGGLVQAGGSLRLSCAASGRTFVPYAMGWYRQAPGKERELVASITRSGGRTYYADSVKGRFTISRDNAKNTVYLQMNSLKPEDTAVYYCAVDWSVYYRTYDYWGQGTQVTVSS,high polyreactivity
9,QVQLVESGGGLVQAGGSLRLSCAASGRTFVPYAMGWYRQAPGKERELVASITWRGGRTYYADSVKGRFTISRDNAKNTVYLQMNSLKPEDTAVYYCAAVGGYASYFHLYYYWGQGTQVTVSS,high polyreactivity
10,QVQLVESGGGLVQAGGSLRLSCAASGRTFVQNAMGWYRQAPGKERELVASIRYRDGSTYYADSVKGRFTISRDNAKNTVYLQMNSLKPEDTAVYYCAVRVTSDYYASRYYYWGQGSQVTVSS,high polyreactivity
11,QVQLVESGGGLVQAGGSLRLSCAASGRTFVRNAMGWYRQAPGKERELVAAISKSGGITYYADSVKGRFTISRDTAKNTVYLQMNSLKPEDTAVYYCAKRTSYYRSGWSHYGYWGQGTQVTVSS,high polyreactivity
12,QVQLVESGGGLVQAGGSLRLSCAASGRTFVRNAMGWYRQAPGKVRELVAAISSIGDSTYYADSVKGRFTISRDNAKNTVYLQMNSLKPEDTAVYYSNARGYVYYRMGYWGQGTQETVSS,low polyreactivity
13,QVQLVESGGGLVQAGGSLRLSCAASGRTFVRNTMGWYRQAPGKERELVAAISGGGSTYYADSVKGRFTISSDNAKKTVYLQMNSLKPEDTAVYYCAATTRRQGGKRFDYWGQGTQVTVSS,high polyreactivity
14,QVQLVESGGGLVQAGGSLRLSCAASGRTFVRYAMGWYRQAPGKERELVAAISWSGGSTYYADSVKGRFTISRDNAKNTVYLQMNSLKPEDTAVYYCATLSAWKASSYDYWGQGTQVTVSS,high polyreactivity
15,QVQLVESGGGLVQAGGSLRLSCAASGRTFVRYAMGWYRQAPGQERELVARITSRGTSTYYADSVKGRFTISRDNAKNTVYLQKNSLKPEDTAVYYCNKVRTFRDKSRYDYWGQGTQVTVSS,low polyreactivity
16,QVQLVESGGGLVQAGGSLRLSCAASGRTFVSNAMGWYRQAPGKERELVAAINSGGSTTYADSVKGRFTISRDNAKNTVYLKMNSLIPEDTAVYYFARRSRYSKGYDYWGQGTQVTVSS,low polyreactivity
17,QVQLVESGGGLVQAGGSLRLSCAASGRTFVSYVMGWYRQAPGKERAFVAAISRSGGNTYYADSVKGRFTMSRDNAKNTVYLQMNSLKPEDTAVDYCAAKLGPLVYDHDYWGQGTQVTVSS,high polyreactivity
18,QVQLVESGGGLVQAGGSLRLSCAASGRTFVTNAMGWYRQAPGKERELVATINWSGGRTHYADSVKGRFTISRDNAKNTVYLQMNSLKPEDTEVYYCAKASSRRYWTIRDGDYWGQGTQVTVSS,low polyreactivity
19,QVQLVESGGGLVQAGGSLRLSCAASGRTFVVKAMGWYRQAPGKERELVAAITRRGGITYYADSVKGRITISRDNAKNTVYLQMNSLKPEDTAVSYCAADRSYYPDTRTTSGYNYWGQGTQVTVSS,low polyreactivity
20,QVQLVESGGGLVQAGGSLRLSCAASGRTFVVNYMGWYRQAPGKERELVATINVSGGSTSYADSVKGRFTISRDNAKNTVYLQMNSLKPEDTAVYYCNVDTYVEYPHDYWGQGTQVTVSS,low polyreactivity
